Source: patent publication US20090191186A1 (KALOBIOS PHARMACEUTICALS, published 2009)
Substitutions are numbered along the chain they refer to.

B1: Fab SEQ ID NOs: 5, 6 (Fab, V domains shown)
VH: QVQLVESGGGVVQPGRSLRLSCTASGFSFSSYGMHWVRQAPGKGLEWVAVIWYNGKEISYADSVKGRFTVSRDNPKNTLYLQMSSLRTEDTAVYYCARNRGDIYYDFTYAMDIWGQGTMVTVSS
VL: AIQLTQSPSFLSASVGDRVTITCRASQGISTYLAWYQQKPGKAPKLLIYAASSLQSGVPSRFSGSGSGTDFTLTISSLQPEDVATYYCQQFWSTPYTFGQGTKLEIK
B2: Fab SEQ ID NOs: 13, 4 (Fab, V domains shown)
VH: QVQLVESGGGVVQPGRSLRLSCAASGFTFSSYPLHWVRQAPGKGLEWVSFISYDGSEKYYASSVKGRFTISRDNSENTLYLQMNSLRPEDTAVYYCARNRGDIYYDFTYAMDIWGQGTMVTVSS
VL: DIQMTQSPSSLSASVGDRVTITCRASQSISRWVAWYQQRPGKAPNLLIYDASSLKSGVPSRFSGSGSGTEFTLTISSLQPEDIATYYCQQFWSTPYTFGQGTKLEIK
B3: Fab SEQ ID NOs: 13, 37 (Fab, V domains shown)
VH: B2 VH
VL: B2 VL with S93G
B4: Fab SEQ ID NOs: 13, 10 (Fab, V domains shown)
VH: B2 VH
VL: B1 VL with A1D, A50D, S53A, D70E
B5: Fab SEQ ID NOs 3, 4 (Fab, V domains shown)
VH: B1 VH with R16G, T23A, S28T, S31T, Y32A
VL: B2 VL
B6: Fab SEQ ID NOs. 24, 26 (Fab, V domains shown)
VH: B2 VH with Q1E, S31N, L34M, S49A, F50V, Y59W, S62D, E76K, Q82E, M119T
VL: DIQLTQSPSTLSASVGDSVTITCRASEGVDRWLAWYQQKPGRAPKLLIYDASTLQSGVPSRFSGSGSGTEFSLTISSLQPDDVATYYCQHFWGTPYTFGQGTKLEIK
B7: Fab SEQ ID NOs. 35. 36 (Fab, V domains shown)
VH: EVQLVESGGGVVQPGRSLRLSCAASGFTFSNYPMHWVRQAPGKGLEWVAVISYDGSEKWYADSVKGRFTISRDNSKNTLYLEMNSLRPEDTAVYYCARNRGDIYYDFTYAMDYWGQGTTVTVSS
VL: B6 VL with G93S

molecular target: PcrV of the Type III secretion system on P. aeruginosa strain PA103 (Pseudomonas aeruginosa strain PA103); experiment: cell-based or functional assay

Row | Binder | IC50 (nM), TTSS-dependent cytotoxicity assay (PA103 killing of P3-X63-Ag8 cells) [nM]
1 | B1 | 50.2
2 | B2 | 20
3 | B3 | 12
4 | B4 | 25.5
5 | B5 | 35.1
6 | B6 | 25.5
7 | B7 | 61.4
